Like-named read-outs stand apart in the source and are kept apart here.
T1: ANG2 (UniProt O15123 68-496, limits assumed)
T1 sequence (looked up): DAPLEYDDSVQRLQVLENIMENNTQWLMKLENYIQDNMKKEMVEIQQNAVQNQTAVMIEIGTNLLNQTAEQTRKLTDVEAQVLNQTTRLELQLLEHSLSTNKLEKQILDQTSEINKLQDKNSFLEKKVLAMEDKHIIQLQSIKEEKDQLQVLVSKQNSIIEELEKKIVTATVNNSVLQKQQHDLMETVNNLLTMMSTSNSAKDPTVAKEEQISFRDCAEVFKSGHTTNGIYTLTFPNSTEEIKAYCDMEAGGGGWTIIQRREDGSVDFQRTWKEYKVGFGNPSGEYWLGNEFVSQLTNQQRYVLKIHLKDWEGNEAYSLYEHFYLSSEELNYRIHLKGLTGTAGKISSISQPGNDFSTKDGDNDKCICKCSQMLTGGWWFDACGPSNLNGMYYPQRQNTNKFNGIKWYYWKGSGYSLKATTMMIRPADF

T2: human ANG2-RBD-mouse Fc-region fusion (human, UniProt O15123 275-496, limits assumed)
T2 construct: domain: RBD; also called human ANG2-RBD-murine Fc-region fusion; not shown: mouse Fc-region
T2 sequence (looked up): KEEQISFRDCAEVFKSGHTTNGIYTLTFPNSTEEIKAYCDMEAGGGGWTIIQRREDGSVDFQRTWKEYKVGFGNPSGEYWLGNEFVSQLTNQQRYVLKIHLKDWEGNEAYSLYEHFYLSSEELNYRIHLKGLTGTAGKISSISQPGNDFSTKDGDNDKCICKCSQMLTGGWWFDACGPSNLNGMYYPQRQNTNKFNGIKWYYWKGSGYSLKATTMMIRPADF

B1: antibody 0085 (antibody, V domains shown)
VH: EVQLVESGGGLVQPGGSLRLSCAASGFTFSSYWMSWVRQAPEKGLEWVSTISDGGGLTYYADSVKGRFTISRDNAKNSLYLQMNSLRAEDTAVYYCAESGGYTDWLFGYWGQGTLVTVSS
VL: not shown
notes: Human antibody from a human Ig locus transgenic rabbit
B2: antibody 0086 (antibody, V domains shown)
VH: B1 VH
VL: not shown
notes: as for B1
B3: PDGF-B-mumAb (antibody, V domains shown)
VH: QVQLQQSGAELMKPGASVKISCKATGYTFSSYWIEWVKQRPGHGLEWIGEILPGSGSTNYNEKFKVKATFTADTSSNTAYMQLSSLTSEDSAVYYCAQTTQDFDSWGQGTTLTVSS
VL: DIVLTQSPGSLAVSLGQRATISCRASESVDIYGYSFMHWYQQKPGQPPKLLIYRASNLESGIPARFSGSGSRTDFTLTINPVEADDVATYYCQQSNEDPRTFGGGTKLEIK
notes: Murine antibody; also called murine anti-human PDGF-B antibody
B4: PDGF-B-mumAb Fab (Fab, V domains shown)
VH: B3 VH
VL: B3 VL
notes: Fab fragment of PDGF-B-mumAb
B5: antibody 0031 (bispecific antibody, V domains shown)
VH 1: QVQLVQSGAEVKKPGASVKVSCKASGYTFTGYYMHWVRQAPGQGLEWIGYISSYNAFTTYNQKFRGRATFTVDTSISTAYMELSRLRSDDTAVYYCVRSDYYGTSLYWGQGTLVTVSS
VL 1: EIVLTQSPATLSLSPGERATLSCRASSSVSYMHWSQQKPGQAPRLLIYSTSNLASGIPARFSGSGSGTDFTLTISSLEPEDFAVYYCHQWSNYYTFGQGTKLEIK
VH 2: not shown
VL 2: SYVLTQPPSVSVAPGQTARITCGGNNIGSKSVHWYQQKPGQAPVLVVYDTSDRPSGIPERFSGSNSGNTATLTISRVEAGDEADYYCQVWDSSSDHWVFGGGTKLTVLSS
notes: CrossMab; also called anti-IL-1beta/ANG2 antibody; bispecific anti-ANG2/IL-1beta antibody

What was measured:
[1] = biological target: T3, murine PDGF-BB (murine, UniProt P31240 82-190); assay: ELISA, antigen coated
T3 construct: also called muPDGF-BB
Method: (§1) The binding analysis was carried out using an enzyme-linked immunosorbent assay (ELISA)-based technology. […] The EC₅₀ was calculated with a four parameter logistic model using GraphPad Prism 6.0 software.

[2] = biological target: T4, rat PDGF-BB (rat, UniProt Q05028 74-182); assay: ELISA, antigen coated
Method: as §1

[3] = biological target: T5, cynomolgus PDGF-BB (cynomolgus, UniProt A0A2K5UX81 82-190); assay: ELISA, antigen coated
T5 construct: also called cynPDGF-BB
Method: as §1

[4] = biological target: T6, human PDGF-BB (human, UniProt P01127 82-190); assay: ELISA, antigen coated
T6 construct: also called huPDGF-BB
Method: as §1

[5] = biological target: T6, human PDGF-BB; assay: cell-based or functional assay
[6] = biological target: T6, human PDGF-BB; assay: cell-based or functional assay; remark: listed apart in the source
[7] = biological target: T6, human PDGF-BB; assay: competition ELISA; biotinylated human PDGF-BB with antibody on coated Fc-tagged PDGF-BB receptor (competitor)
Method: (§2) The IC₅₀ was calculated with a four parameter logistic model using GraphPad Prism 6.0 software.

[8] = biological target: T5, cynomolgus PDGF-BB; assay: SPR (BIAcore B4000); PDGF-BB coupled on C1 chip, antibody injected; apparent KD (avidity)
Method: (§3) The binding analysis was carried out using a surface plasmon resonance spectroscopy-based technology applying a BIAcore B4000 system (GE Healthcare). […] Utilizing a read out time of 180 sec. association phase and 600 sec. dissociation phase the apparent kₐ and apparent kd were calculated. The apparent KD (avidity) was calculated using the BlAcore T200 v2.0 fitting software.

[9] = biological target: T6, human PDGF-BB; assay: as above
Method: as §3

[10] = biological target: T6, human PDGF-BB; assay: SPR (BIAcore T200) kinetic screening; PDGF-BB coupled on C1 chip, antibody injected
[11] = biological target: T5, cynomolgus PDGF-BB; assay: SPR (BIAcore B4000); PDGF-BB coupled on C1 chip, antibody injected; apparent value
Method: as §3

[12] = biological target: T6, human PDGF-BB; assay: as above
Method: as §3

[13] = biological target: T6, human PDGF-BB; assay: SPR; apparent KD** of the IgG
[14] = biological target: T6, human PDGF-BB; assay: SPR; IgG
[15] = biological target: T6, human PDGF-BB; assay: SPR; apparent KD** of the whole antibody
[16] = biological target: T6, human PDGF-BB; assay: competition ELISA; biotinylated human PDGF-BB with antibody on coated Fc-tagged PDGF-BB receptor (competitor); remark: listed apart in the source
Method: as §2

[17] = biological target: T6, human PDGF-BB; assay: SPR (BIAcore T200) kinetic screening; PDGF-BB coupled on C1 chip, antibody injected; remark: listed apart in the source
[18] = biological target: T6, human PDGF-BB; assay: cell-based or functional assay; remark: listed apart in the source
[19] = biological target: T3, murine PDGF-BB; assay: ELISA, antigen coated; remark: listed apart in the source
[20] = biological target: T4, rat PDGF-BB; assay: ELISA, antigen coated; remark: listed apart in the source
[21] = biological target: T6, human PDGF-BB; assay: ELISA, antigen coated; remark: listed apart in the source
[22] = biological target: T7, human PDGF-AA (human, UniProt P04085 87-211, limits assumed); assay: ELISA, antigen coated
T7 construct: also called huPDGF-AA

[23] = biological target: T6, human PDGF-BB; assay: cell-based or functional assay; remark: listed apart in the source
[24] = biological target: T6, human PDGF-BB; assay: SPR; whole antibody
[25] = biological target: T6, human PDGF-BB; assay: SPR; Fab
[26] = biological target: T6, human PDGF-BB; assay: SPR (BIAcore T200); PDGF-BB coupled on CM3 chip, Fab injected
[27] = biological target: T6, human PDGF-BB; assay: SPR; apparent KD of the Fab
[28] = biological target: T1, ANG2; assay: cell-based or functional assay
[29] = biological target: T8, human IL-1beta (human, UniProt P01584 117-269); assay: cell-based or functional assay
[30] = biological target: T2, human ANG2-RBD-mouse Fc-region fusion; assay: SPR (BIAcore T200); ANG2-RBD-mouse Fc captured, antibody injected (Example 52)
Method: Binding of the bispecific antibody to human ANG2-RBD-mouse Fc-region fusion was investigated by surface plasmon resonance using a BIACORE T200 instrument (GE Healthcare). […] HBS-N (10 mM HEPES, 150 mM NaCl pH 7.4, GE Healthcare) was used as running buffer during the immobilization procedure. For the following kinetic characterization, sample and running buffer was HBS-P (10 mM HEPES, 150 mM NaCl pH 7.4, 0.05% Surfactant P20; GE Healthcare). The flow cell was set to 25° C.—and the sample block set to 12° C.—and primed with running buffer twice prior to kinetic characterization.

[31] = biological target: T8, human IL-1beta; assay: SPR (BIAcore T200); antibody captured by anti-human Fc, human IL-1beta injected (Example 52); set-up: t 1/2: unit not given here
[32] = biological target: T8, human IL-1beta; assay: cell-based or functional assay; remark: listed apart in the source

T5 sequence (A0A2K5UX81 entry or part of it): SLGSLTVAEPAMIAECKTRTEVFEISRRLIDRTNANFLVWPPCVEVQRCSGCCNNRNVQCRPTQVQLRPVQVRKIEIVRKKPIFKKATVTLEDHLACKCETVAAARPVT
T3 sequence (P31240 82-190 limits assumed): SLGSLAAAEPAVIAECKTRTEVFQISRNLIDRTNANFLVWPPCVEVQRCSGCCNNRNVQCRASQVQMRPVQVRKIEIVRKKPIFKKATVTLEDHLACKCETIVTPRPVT
T4 sequence (Q05028 74-182 limits assumed): as the sequence (P31240 82-190 limits assumed) above, with I83V, I102V counted along it
T6 sequence (P01127 82-190 limits assumed): as the sequence (A0A2K5UX81 entry or part of it) above, with V7I counted along it

| Binder | EC50 [1] | EC50 [2] | EC50 [3] | EC50 [4] | Balb-C3T3 Proliferation, IC50 [5] | Pericytes Migration, IC50 [5] | Pericytes Proliferation, IC50 [5] | IC50 Proliferation 3T3 [6] | IC50 [7] | Kd [8] | Kd [9] | koff [10] | t½ [10] | koff [11] | kon [11] | koff [12] | kon [12] | Kd [13] | T½ [14] | other results |
| --- | --- | --- | --- | --- | --- | --- | --- | --- | --- | --- | --- | --- | --- | --- | --- | --- | --- | --- | --- | --- |
| B1 | 0.025 µg/mL | 0.016 µg/mL | 0.0153 µg/mL | 0.00755 µg/mL | 0.06 nM | 0.15 nM | 0.11 nM | 0.0318 µg/mL | 0.0178 µg/mL | 0.0478 nM | 0.0476 nM | 0.000102 s⁻¹ | 114 min | 4.52e-05 s⁻¹ | 940000 M⁻¹ s⁻¹ | 4.4e-05 s⁻¹ | 930000 M⁻¹ s⁻¹ | 0.023 nM | 146 min |  |
| B2 | 0.0141 µg/mL | 0.0106 µg/mL | 0.0162 µg/mL | 0.012 µg/mL | 0.11 nM | 0.09 nM | 0.09 nM | 0.056 µg/mL | 0.0117 µg/mL | 0.0178 nM | 0.0218 nM | 7.93e-05 s⁻¹ | 146 min | 1.84e-05 s⁻¹ | 1.04e+06 M⁻¹ s⁻¹ | 2.3e-05 s⁻¹ | 1.04e+06 M⁻¹ s⁻¹ | 0.03 nM | 41 min |  |
| B3 |  |  |  |  |  |  |  |  |  |  |  |  |  |  |  |  |  |  |  | Kd [15]: 0.042 nM; IC50 [16]: 0.0122 µg/mL; koff [17]: 0.00045 s⁻¹; t½ [17]: 26 min; IC50 Phospho-Inhibition [18]: 0.0017 µg/mL; IC50 Proliferation 3T3 [18]: 0.0551 µg/mL; EC50 [19]: 0.0088 µg/mL; EC50 [20]: 0.00512 µg/mL; EC50 [21]: 0.0163 µg/mL; EC50 [22]: 0.00204 µg/mL; IC50 Phospho-Inhibition [23]: 0.0017 µg/mL; IC50 Proliferation 3T3 [23]: 0.0551 µg/mL; T½ [24]: 47.8 min |
| B4 |  |  |  |  |  |  |  |  |  |  |  |  |  |  |  |  |  |  |  | T½ [25]: 5.75 min; Kd [26]: 5 nM; koff [26]: 0.00201 s⁻¹; kon [26]: 439000 M⁻¹ s⁻¹; t½ [26]: 5.75 min; Kd [27]: 5 nM |
| B5 |  |  |  |  |  |  |  |  |  |  |  |  |  |  |  |  |  |  |  | ANG2 specific pTie2-ELISA, activity against the anti-ANG2/VEGF antibody reported in WO 2014/09465 [28]: 6 fold; IC50, inhibition of ICAM-1 expression upon IL-1beta stimulation of A549 cells [29]: 0.104 µg/mL; Kd [30]: 8 nM; koff [30]: 0.00115 s⁻¹; kon [30]: 145000 M⁻¹ s⁻¹; t½ [30]: 10.1 min; Kd [31]: 0.12 nM; koff [31]: 0.000302 s⁻¹; kon [31]: 2.56e+06 M⁻¹ s⁻¹; t 1/2 [31]: 38; EC50, reduction of IL-6 expression upon IL-1beta stimulation of A549 cells [32]: 0.017 µg/mL |

From US20170240629A1 (Hoffmann-La Roche, published 2017)
